Assay results reported in PMC5660122 (2017).
One block for each binder: values may come before it.

Tests used:
Test in all cases: SPR
2V-E06-2V = 2V-E06-2V (Squalus acanthias | dogfish)
2V-BA11-2V = 2V-BA11-2V (Squalus acanthias)
2V-BB11-2V = 2V-BB11-2V (Squalus acanthias)
2V-BB10-2V = 2V-BB10-2V (Squalus acanthias)
humanized E06 v2.4-2G = biological target: humanized E06 v2.4-2G
humanized E06 BB11 = biological target: humanized E06 BB11
humanized E06 BA11 = biological target: humanized E06 BA11

Kd (2V-E06-2V): 0.76 nM
koff (2V-E06-2V): 0.000126 s⁻¹
Kd (2V-BA11-2V): 7.95 nM
koff (2V-BA11-2V): 9.48e-05 s⁻¹
Kd (2V-BB11-2V): 0.64 nM
koff (2V-BB11-2V): 0.000472 s⁻¹
Kd (2V-BB10-2V): 5.5 nM
koff (2V-BB10-2V): 0.00439 s⁻¹
B1: cynomolgus serum albumin (natural protein)
chain: DTHKSEVAHRFKDLGEEHFKGLVLVAFSQYLQQCPFEEHVKLVNEVTEFAKTCVADESAENCDKSLHTLFGDKLCTVATLRETYGEMADCCAKQEPERNECFLQHKDDNPNLPPLVRPEVDVMCTAFHDNEATFLKKYLYEVARRHPYFYAPELLFFAARYKAAFAECCQAADKAACLLPKLDELRDEGKASSAKQRLKCASLQKFGDRAFKAWAVARLSQKFPKAEFAEVSKLVTDLTKVHTECCHGDLLECADDRADLAKYMCENQDSISSKLKECCDKPLLEKSHCLAEVENDEMPADLPSLAADYVESKDVCKNYAEAKDVFLGMFLYEYARRHPDYSVMLLLRLAKAYEATLEKCCAAADPHECYAKVFDEFQPLVEEPQNLVKQNCELFEQLGEYKFQNALLVRYTKKVPQVSTPTLVEVSRNLGKVGAKCCKLPEAKRMPCAEDYLSVVLNRLCVLHEKTPVSEKVTKCCTESLVNRRPCFSALELDEAYVPKAFNAETFTFHADMCTLSEKEKQVKKQTALVELVKHKPKATKEQLKGVMDNFAAFVEKCCKADDKEACFAEEGPKFVAASQAALA

Kd (2V-E06-2V): 7.6 nM
koff (2V-E06-2V): 0.00075 s⁻¹
Kd (2V-BA11-2V): 18.7 nM
koff (2V-BA11-2V): 0.00054 s⁻¹
Kd (2V-BB11-2V): 1.49 nM
koff (2V-BB11-2V): 0.0035 s⁻¹
Kd (humanized E06 v2.4-2G): 7.64 nM
Kd (humanized E06 BB11): 8.29 nM
Kd (humanized E06 BA11): 130 nM
B2: rat serum albumin (natural protein)
chain: EAHKSEIAHRFKDLGEQHFKGLVLIAFSQYLQKCPYEEHIKLVQEVTDFAKTCVADENAENCDKSIHTLFGDKLCAIPKLRDNYGELADCCAKQEPERNECFLQHKDDNPNLPPFQRPEAEAMCTSFQENPTSFLGHYLHEVARRHPYFYAPELLYYAEKYNEVLTQCCTESDKAACLTPKLDAVKEKALVAAVRQRMKCSSMQRFGERAFKAWAVARMSQRFPNAEFAEITKLATDVTKINKECCHGDLLECADDRAELAKYMCENQATISSKLQACCDKPVLQKSQCLAEIEHDNIPADLPSIAADFVEDKEVCKNYAEAKDVFLGTFLYEYSRRHPDYSVSLLLRLAKKYEATLEKCCAEGDPPACYGTVLAEFQPLVEEPKNLVKTNCELYEKLGEYGFQNAVLVRYTQKAPQVSTPTLVEAARNLGRVGTKCCTLPEAQRLPCVEDYLSAILNRLCVLHEKTPVSEKVTKCCSGSLVERRPCFSALTVDETYVPKEFKAETFTFHSDICTLPDKEKQIKKQTALAELVKHKPKATEDQLKTVMGDFAQFVDKCCKAADKDNCFATEGPNLVARSKEALA
